Positions count from the first letter of the chain named. Values belong to the binder of their own block, whether it stands above or below them.
Key:
[1] = target: T1, human PD-L1 (on cells or in tissue) (human, UniProt Q9NZQ7 19-290); test: competition flow cytometry on ES-2 cells: unlabeled Ab titrated, then biotin-12A4 at 0.4 ug/mL, streptavidin-PE
T1 construct: whole, on cells; also called hPD-L1; Programmed Death Ligand-1

[2] = target: T1, human PD-L1 (on cells or in tissue); test: flow cytometry on CHO/PD-L1 cells pre-incubated with 10 ug/mL hIgG1, FITC-10H10 at 0.27 ug/mL
Excerpt: (§1) Different quantities of the various FITC-conjugated HuMAbs were used due to differences in binding efficiency following labeling, and the optimal amounts of these FITC-conjugated HuMAbs were previously determined by dose-titration analysis of binding to CHO/PD-L1 cells.

[3] = target: T1, human PD-L1 (on cells or in tissue); test: flow cytometry competition on CHO/PD-L1 cells; unlabeled mAb at 10 ug/ml
Excerpt: as §1

[4] = target: T2, human PD-1 (human, UniProt Q15116 25-288); test: flow cytometry on CHO/PD-1 cells pre-incubated with 10 ug/mL hIgG1 control, 2D3 at 0.2 ug/mL, detection with FITC goat anti-hIgG Fc
T2 construct: whole, on cells; also called hPD-1; Programmed Death-1

[5] = target: T2, human PD-1; test: flow cytometry on CHO/PD-1 cells pre-incubated with 10 ug/mL hIgG1 control, 4H1 at 0.2 ug/mL, detection with FITC goat anti-hIgG Fc
[6] = target: T2, human PD-1; test: flow cytometry on CHO/PD-1 cells pre-incubated with hIgG control, FITC-labeled 17D8
[7] = target: T2, human PD-1; test: flow cytometry on CHO/PD-1 cells pre-incubated with 10 ug/mL hIgG1 control, 7D3 at 0.2 ug/mL, detection with FITC goat anti-hIgG Fc

B1: anti-PD-L1 HuMAb 10A5 (antibody, V domains shown)
VH: QVQLVQSGAEVKKPGASVKVSCKASGYTFTSYDVHWVRQAPGQRLEWMGWLHADTGITKFSQKFQGRVTITRDTSASTAYMELSSLRSEDTAVYYCARERIQLWFDYWGQGTLVTVSS
VL: DIQMTQSPSSLSASVGDRVTITCRASQGISSWLAWYQQKPEKAPKSLIYAASSLQSGVPSRFSGSGSGTDFTLTISSLQPEDFATYYCQQYNSYPYTFGQGTKLEIK
notes: Human mAb; Used unconjugated and FITC-conjugated
binding result [1]: binds

B2: anti-PD-L1 HuMAb 10H10 (antibody, V domains shown)
VH: EVQLVESGGGLVQPGRSLRLSCAVSGFTFDDYVVHWVRQAPGKGLEWVSGISGNSGNIGYADSVKGRFTISRDNAKNSLYLQMNSLRAEDTALYYCAVPFDYWGQGTLVTVSS
VL: B1 VL
notes: as for B1
binding result [2]: binds

B3: anti-PD-L1 HuMAb 1B12 (antibody, V domains shown)
VH: QVQLVQSGAEVKKPGSSVKVSCKTSGDTFSSYAISWVRQAPGQGLEWMGGIIPIFGRAHYAQKFQGRVTITADESTSTAYMELSSLRSEDTAVYFCARKFHFVSGSPFGMDVWGQGTTVTVSS
VL: not shown
notes: Human mAb
IC50 (read off the curve) [1]: ~0.2 nM

B5: anti-PD-1 HuMAb 2D3 (antibody, V domains shown)
VH: QVQLVESGGDVVQPGRSLRLSCAASGLTFTNYGFHWVRQAPGKGLEWVAVIWYDGSKKYYADSVKGRFTISRDNSKNTLYLQMNNLRAEDTAVYYCATGDDYWGQGTLVTVSS
VL: EIVLTQSPATLSLSPGERATLSCRASQSVSSYLAWYQQKPGQAPRLLIYDTSNRATGIPARFSGSGSGTDFTLTISSLEPEDFAVYYCQQRSNWPLTFGGGTKVEIK
notes: Human mAb
binding result [4]: binds

B6: anti-PD-L1 HuMAb 3G10 (antibody, V domains shown)
VH: QVQLVQSGAEVKKPGASVKVSCKASGYTFTDYGFSWVRQAPGQGLEWMGWITAYNGNTNYAQKLQGRVTMTTDTSTSTVYMELRSLRSDDTAVYYCARDYFYGMDVWGQGTTVTVSS
VL: B5 VL with A34V, T51A, L96R, G100Q
notes: as for B1
IC50 (read off the curve) [1]: ~0.9 nM

Now from value to binder:

binding result [3]: binds
B4: anti-PD-L1 HuMAb 7H1 (antibody, V domains shown)
VH: B3 VH with D27G, R57K, S77T, F95Y, F100Y, H101D, F102Y
VL: not shown
notes: Human mAb

binding result [5]: binds
B7: anti-PD-1 HuMAb 4H1 (antibody, V domains shown)
VH: QVYLVESGGGVVQPGRSLRLSCAASGFTFSNYGMHWVRQAPGKGLEWVALIWYDGSNKYYADSVKGRFTISRDNSKNTLYLQMTSLRVEDTAVYYCASNVDHWGQGTLVTVSS
VL: B5 VL with T51A, R91S, L96R, G100Q
notes: Human mAb

binding result [6]: binds
B8: anti-PD-1 HuMAb 17D8 (antibody, V domains shown)
VH: QVQLVESGGDVVQPGGSLRLSCAASGVAFSNYGMHWVRQAPGKGLEWVAVIWYDGSNKYYADSVKGRFTISRDNSKNMLYLQMNSLRAEDTAMYYCARNDDYWGQGTLVTVSS
VL: B5 VL with L47I, T51A
notes: Human mAb; also called FITC-labeled 17D8

binding result [7]: binds
B9: anti-PD-1 HuMAb 7D3 (antibody, V domains shown)
VH: B5 VH with D10G, A23T, A24T, L27I, T30S, N31S, I70L, N74D, N85S, A97V
VL: B5 VL with T51A
notes: Human mAb

From patent publication US20150125463A1 (Bristol-Myers Squibb, published 2015)
